# “And” between values parts separate entries of the source, which are not always exact repeats. Identical values can stand only once.
# Tests used:
# [1] = biological target: P. falciparum MTRAP TSR1+2 fragment, biotinylated bait (Cd4d3+4-biotin) (P. falciparum); assay: SPR; equilibrium (steady state affinity model); biotinylated MTRAP or TSR1+2 captured on a streptavidin-coated chip, serial dilutions of purified Semaphorin-7A injected at 20 µl/min; Biacore T100, 37°C, HBS-EP; reference flow cell with biotinylated rat Cd4d3+4
# [2] = biological target: P. falciparum MTRAP entire ectodomain, biotinylated bait (Cd4d3+4-biotin) (P. falciparum); assay: as above
# [3] = biological target: Human Semaphorin-7A entire ectodomain, biotinylated bait (Cd4d3+4-biotin) (human); assay: SPR; kinetic (dissociation model fitted to a family of binding curves); biotinylated Semaphorin-7A or its variants captured on a streptavidin-coated chip, serial dilutions of purified MTRAP injected at 100 µl/min; Biacore T100, 37°C, HBS-EP
# [4] = biological target: Human Semaphorin-7A ectodomain, natural variant Q530P, biotinylated bait (human); assay: as above
# [5] = biological target: Human Semaphorin-7A ectodomain, natural variant R207Q, biotinylated bait (human); assay: as above
# [6] = biological target: Human Semaphorin-7A ectodomain, natural variant R460H, biotinylated bait (human); assay: as above
# [7] = biological target: Human Semaphorin-7A ectodomain, natural variant R475T, biotinylated bait (human); assay: as above
# [8] = biological target: Human Semaphorin-7A ectodomain, natural variant S115T, biotinylated bait (human); assay: as above
# [9] = biological target: Human Semaphorin-7A ectodomain, natural variant E473V, biotinylated bait (human); assay: as above
# [10] = biological target: Human Semaphorin-7A ectodomain, natural variant R474L, biotinylated bait (human); assay: as above
# [11] = biological target: Human Semaphorin-7A ectodomain, natural variant Q457K, biotinylated bait (human); assay: as above
# [12] = biological target: purified monomeric Semaphorin-7A ectodomain (Cd4d3+4-His6) (human); assay: SEC + other: amino acid analysis; peak fraction of the SEC of the equimolar mixture; amino acid composition compared with theoretical 1:1, 2:1 and 1:2 (Semaphorin-7A:MTRAP)
# [13] = biological target: PNGase F-treated Semaphorin-7A, biotinylated bait (human); assay: SPR; Biacore T100; biotinylated Semaphorin-7A ectodomain, PNGase F-treated form, single domains or variants captured on a streptavidin chip, purified monomeric MTRAP injected; reference biotinylated rat Cd4d3+4; 37°C, HBS-EP
# [14] = biological target: Semaphorin-7A Sema domain, biotinylated bait (human) (UniProt O75326); assay: as above
# UniProt O75326, sequence (O75326 53-490): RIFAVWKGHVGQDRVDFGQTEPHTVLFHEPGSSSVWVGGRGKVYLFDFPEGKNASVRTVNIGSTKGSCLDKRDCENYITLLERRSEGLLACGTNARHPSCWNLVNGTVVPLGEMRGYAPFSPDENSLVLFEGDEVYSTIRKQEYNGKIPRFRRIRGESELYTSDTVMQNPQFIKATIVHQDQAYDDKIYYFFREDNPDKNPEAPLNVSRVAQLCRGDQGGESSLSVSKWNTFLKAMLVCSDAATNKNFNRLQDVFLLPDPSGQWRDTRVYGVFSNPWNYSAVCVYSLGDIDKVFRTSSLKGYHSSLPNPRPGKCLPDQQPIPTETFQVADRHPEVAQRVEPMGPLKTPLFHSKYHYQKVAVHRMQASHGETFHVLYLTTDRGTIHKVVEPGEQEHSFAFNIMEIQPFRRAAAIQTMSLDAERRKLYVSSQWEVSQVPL
# [15] = biological target: Semaphorin-7A entire ectodomain, biotinylated bait (human); assay: as above
# [16] = biological target: purified monomeric Semaphorin-7A ectodomain (Cd4d3+4-His6) (human); assay: SEC; Superdex 200 Tricorn 10/600 in HBS-EP; nickel-purified His-tagged proteins alone and mixed at equimolar concentrations; fractions on SDS-PAGE, Coomassie
# [17] = biological target: purified monomeric Semaphorin-7A ectodomain (Cd4d3+4-His6) (human); assay: SEC-MALS; Superdex200 10/30 in 50 mM Tris.HCl pH 7.5, 150 mM NaCl, 0.4 ml/min; Dawn Heleos-II and Optilab-Rex
# [18] = biological target: MTRAP entire ectodomain, biotinylated bait (P. falciparum); assay: SPR; Biacore T100; biotinylated MTRAP or TSR baits captured on a streptavidin chip, serial dilutions of purified Semaphorin-7A injected (20 µl/min for equilibrium); reference biotinylated rat Cd4d3+4; 37°C, HBS-EP
# [19] = biological target: MTRAP TSR1+2 fragment, biotinylated bait (P. falciparum); assay: as above
substance,measurement,setting,value
"Human Semaphorin-7A entire ectodomain, soluble monomeric His-tagged (Cd4d3+4-His6), purified (domain or fragment)",Kd,[1],1940 nM and 1930 nM and 2000 nM
same,Kd,[2],1070 nM and 850 nM and 1620 nM
"P. falciparum MTRAP entire ectodomain, monomeric His-tagged, purified (domain or fragment)",koff,[3],0.058 s⁻¹ and 0.054 s⁻¹ and 0.056 s⁻¹
same,koff,[4],0.05 s⁻¹ and 0.055 s⁻¹ and 0.053 s⁻¹
same,koff,[5],0.054 s⁻¹ and 0.045 s⁻¹ and 0.05 s⁻¹
same,koff,[6],0.049 s⁻¹ and 0.051 s⁻¹ and 0.05 s⁻¹
same,koff,[7],0.059 s⁻¹ and 0.053 s⁻¹ and 0.056 s⁻¹
same,koff,[8],0.053 s⁻¹ and 0.047 s⁻¹ and 0.05 s⁻¹
same,koff,[9],0.056 s⁻¹ and 0.054 s⁻¹ and 0.055 s⁻¹
same,koff,[10],0.046 s⁻¹ and 0.057 s⁻¹ and 0.052 s⁻¹
same,koff,[11],0.053 s⁻¹ and 0.058 s⁻¹ and 0.056 s⁻¹
monomeric His-tagged MTRAP ectodomain lacking the Cd4d3+4-tag (domain or fragment),stoichiometry N,[12],1
"purified monomeric MTRAP (His-tagged ectodomain, analyte in SPR) (domain or fragment)",koff,[13],0.063 s⁻¹
same,Kd,[14],830 nM
same,koff,[15],0.061 s⁻¹
purified monomeric Semaphorin-7A ectodomain (Cd4d3+4-His6) (domain or fragment),stoichiometry N,[16],2
same,stoichiometry N,[17],2
same,Kd,[18],1180 nM
same,Kd,[19],1960 nM
